Assay results: paper PMC10863865 (PLOS Pathogens, 2024)

Experiments:
[1] = target: T1, sGc-S-tag (Gc ectodomain of CCHFV-YL16070 with an S-tag) (Crimean-Congo hemorrhagic fever virus, …, strain, biotin (labelled for BLI)); assay: BLI; […] (25 ug/mL), […]; PBS with 0.1% BSA and 0.02% Tween-20; association 600 s, dissociation 600 s; Octet-Red 96; conditions: both partners purified
T1 construct: not shown: S-tag, N-terminal, kept

[2] = target: Gc protein in CCHFV-YL16070-infected Vero E6 cells (Crimean-Congo hemorrhagic fever virus, …, strain); assay: western blot; conditions: one partner purified

B1: Gc8 monoclonal antibody (antibody, V domains shown)
VH: QVQLQQPGAEVVKPGASVKMSCKASGYTFTSYSMHWVKQTPGQGLEWIGAIYPGNGDTSYNQKFKGKATLTADKSSSTAYMQLSSLTSEDSAGYYCARGDQYYGYFDFWGQGTTLTVSS
VL: DIQMTQSPASLSASVGETVTITCRTSENIYSFLAWYQQKQGKSPQRLVSHAKALAEGVPSRFSGSGTGTQFSLKINSLQPEDFGSYYCQHHYGIPLTFGAGTKLELK
notes: also called mAb Gc8; copies: 2 + 2
Kd [1]: 0.0834 nM | binding result [2]: binds

B2: Gc13 monoclonal antibody (antibody, V domains shown)
VH: QVQLQQSGPEVVRPGVSVKISCKGSGYTFTDYATHWVKQSHVKSLEWIGVISTYNGETDCNQKFKGKATMTVDKSSSTAYMELARLTSEDSAIYYCANGYYQAMDYWGQGTSVTVSS
VL: DIQMTQTPSSLSASLGDRVTISCRASQDISNYLNWYQQRPDGTLKLLIYYTSRLHSGVPSRFSGSGSGTDYSLTISNLEQEDIATYFCQQGSTLPWTFGGGTKLEIK
notes: also called mAb Gc13; copies: 2 + 2
Kd [1]: 0.0324 nM | binding result [2]: binds
